For assay [1], the target named is T1, Human PTK7 (CCK4 protein, ECD, His Tag, Sino Biological) (human, UniProt Q13308 31-704).
T1 construct: extracellular domain; Bought protein; also called hPTK7; HPTK7; not shown: His tag
T1 sequence (looked up): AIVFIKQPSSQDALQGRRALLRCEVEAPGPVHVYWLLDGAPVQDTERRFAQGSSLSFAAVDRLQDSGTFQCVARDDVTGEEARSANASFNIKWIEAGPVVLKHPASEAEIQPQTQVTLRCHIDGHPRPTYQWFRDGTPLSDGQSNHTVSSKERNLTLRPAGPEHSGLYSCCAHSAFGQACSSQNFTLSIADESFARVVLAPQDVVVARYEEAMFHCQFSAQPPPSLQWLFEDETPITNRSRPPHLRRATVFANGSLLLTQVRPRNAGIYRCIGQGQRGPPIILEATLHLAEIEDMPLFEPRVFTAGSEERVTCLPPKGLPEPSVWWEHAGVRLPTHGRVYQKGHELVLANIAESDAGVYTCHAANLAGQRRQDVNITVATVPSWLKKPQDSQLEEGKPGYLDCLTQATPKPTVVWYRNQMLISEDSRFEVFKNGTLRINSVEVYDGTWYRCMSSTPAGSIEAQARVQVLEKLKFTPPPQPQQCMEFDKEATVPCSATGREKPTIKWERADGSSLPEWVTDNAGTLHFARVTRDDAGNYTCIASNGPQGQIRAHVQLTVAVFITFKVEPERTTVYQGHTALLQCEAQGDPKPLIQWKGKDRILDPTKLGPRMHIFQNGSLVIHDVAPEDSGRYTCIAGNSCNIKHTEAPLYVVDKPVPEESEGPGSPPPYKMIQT
Description: ELISA: His-tagged hPTK7 on nickel plate, ADC at 8 µg/mL (Example 25), goat anti-human IgG-HRP, TMB, absorbance at 652 nm, background-corrected. (In an ELISA, binding on a coated surface is turned into a signal by an enzyme label.)

In assay [2] the target is T2, Rat PTK7 (His Tag, Acro Biosystems) (rat, UniProt A0A8I6ALM9 40-713).
T2 construct: Bought protein; also called rPTK7; not shown: His tag
Briefly: ELISA: His-tagged PTK7 on nickel plate, ADC at 8 µg/mL (Example 25), goat anti-human IgG-HRP, TMB, absorbance at 652 nm, background-corrected.

Assay [3] addresses T3, cynomolgus PTK7 (CCK4 protein, ECD, His Tag, Sino Biological) (cynomolgus, UniProt A0A2K5VNI5 39-712).
T3 construct: extracellular domain; Bought protein; also called cPTK7; cyno PTK7; not shown: His tag
T3 sequence: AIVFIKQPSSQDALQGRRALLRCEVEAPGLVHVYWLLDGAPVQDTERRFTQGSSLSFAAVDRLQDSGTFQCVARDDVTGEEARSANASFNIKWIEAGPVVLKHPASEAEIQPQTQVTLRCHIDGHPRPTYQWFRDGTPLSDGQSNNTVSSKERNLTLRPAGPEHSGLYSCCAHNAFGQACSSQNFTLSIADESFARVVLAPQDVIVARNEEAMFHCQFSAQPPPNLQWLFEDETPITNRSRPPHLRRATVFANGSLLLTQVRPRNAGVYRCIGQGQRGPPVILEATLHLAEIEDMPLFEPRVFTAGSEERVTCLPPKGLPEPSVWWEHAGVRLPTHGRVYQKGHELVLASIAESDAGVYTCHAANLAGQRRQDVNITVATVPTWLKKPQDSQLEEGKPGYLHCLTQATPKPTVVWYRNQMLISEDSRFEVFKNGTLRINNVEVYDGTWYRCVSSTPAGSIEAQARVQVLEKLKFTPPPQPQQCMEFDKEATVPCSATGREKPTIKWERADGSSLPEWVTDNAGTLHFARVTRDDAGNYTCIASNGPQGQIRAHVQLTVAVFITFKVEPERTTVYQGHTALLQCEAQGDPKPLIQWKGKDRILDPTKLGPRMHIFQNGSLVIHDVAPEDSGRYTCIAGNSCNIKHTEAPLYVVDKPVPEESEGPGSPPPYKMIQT
The description is as above.

Assay [4] deals with T1, Human PTK7 (CCK4 protein, ECD, His Tag, …). The assay is described as above.
Description: Nickel NTA plates (Pierce™ Nickel coated plated, ThermoScientific™) were washed three times prior to use. Human PTK7 (CCK4 protein, ECD, His Tag, Sino Biological), cynomolgus PTK7 (CCK4 protein, ECD, His Tag, Sino Biological) and Rat PTK7 (His Tag, Acro Biosystems) were dissolved at a concentration of 0.05 μg/mL in 0.1% BSA in PBS (PBA). 100 μL was added to each well and incubated while shaking for 1 hour at room temperature. After removal, the plate was washed 3× with 0.05% Tween-20 in PBS (washing buffer). ADCs were diluted in 0.1% PBA to a final concentration of 8 μg/mL and 100 μL was added to each well (in triplo). ADCs were incubated for 1 h at room temperature. Prior to the addition of 100 μL 1:1000 dilution of secondary antibody (Goat anti-human IgG, HRP conjugate, Invitrogen) the plate was washed 3× with washing buffer. The plate was incubated again for 1 h at room temperature and subsequently washed 3× with washing buffer and 3× with PBS. Finally, 100 μL TMB ELISA substrate (1 Step™ Turbo TMB ELISA substrate, ThermoScientific™) was added and incubated for 1 minute.

B1: B12-3 (antibody, human IgG1, kappa, V domains shown)
VH: QVQLVQSGAEVKKPGASVKVSCQASGYRFSNFVIHWVRQAPGQRFEWMGWINPYNGNKEFSAKFQDRVTFTADTSANTAYMELRSLRSADTAVYYCARVGPYSWDDSPQDNYYMDVWGKGTTVIVSS
VL: EIVLTQSPGTLSLSPGERATFSCRSSHSIRSRRVAWYQHKPGQAPRLVIHGVSNRASGISDRFSGSGSGTDFTLTITRVEPEDFALYYCQVYGASSYTFGQGTKLERKR
notes: also called B12 (VI) conjugated with linker-drug 3; isotype control ADC
For the molecule B1, in assay [1], the binding result is “no binding (tested: 8 µg/mL)”.

B2: 12C6a-3 (antibody, human IgG1, kappa, V domains shown)
VH: VQLVQSGGGLVHPGGSLRLSCAGSGFTFSTYLMYWVRQAPGKTLEWVSAIGSGGDTYYADSVKGRFTISRDNAKNSLYLQMNSLRAEDMAVYYCARGLGYWGQGTLVTVSS
VL: DIQMTQSPSSLSASVGDRVTITCRASQGISSWLAWYQQKPEKAPKSLIYAASSLQSGVPSRFSGSGSGTDFTLTISSLQPEDFATYYCQQYNSYPYTFGQGTKLEIKR
modifications: heavy-chain N-glycan trimmed to core GlcNAc, extended with 6-N3-GalNAc and clicked to BCN-HS-PEG2-HS-(va-PAB-Ex)2 (linker-drug 3, exatecan); average DAR 3.90
notes: Antibody-drug conjugate of IgG 12C6a (V)
As to B2, the binding result in assay [2], in assay [3] and in assay [4] was “no binding (tested: 8 µg/mL)” in each case.

B3: 4D5-3 (antibody, human IgG1, kappa, V domains shown)
VH: QVQLVESGGGVVQPGRSLRLSCAASGFTFSSYAFHWVRQAPGKGLEWVAVISYDGSIKYYADSVKGRFTISRDNSKNTLYLQMNSLRAEDTAVYYCARTYYFDYWGQGTLVTVSS
VL: EIVLTQSPDFQSVTPKEKVTITCRASQSIGSSLHWYQQKPDQSPKLLIKYASQSFSGVPSRFSGSGSGTDFTLTINSLEAEDAAAYYCHQSSSLPITFGQGTRLEIKR
modifications: heavy-chain N-glycan trimmed to core GlcNAc, extended with 6-N3-GalNAc and clicked to BCN-HS-PEG2-HS-(va-PAB-Ex)2 (linker-drug 3, exatecan); average DAR 3.91
On to B3, for which the results for the binding result in assay [2] and in assay [4] were “no binding (tested: 8 µg/mL)” and “binds”, respectively.
